Blank lines part the entries; values can stand above or below the molecule they belong to.
Legend:
[1] = tested on: SMAD2/3; assay: Analysis of phosphorylated SMAD2/3 in tonsil CD4 T cells; type: cell-based, human; settings: tonsil naïve CD4 T cells, activin A+Galunisertib
Text: (§1) Fresh PBMCs and tonsil mononuclear cells were serum-starved over night in AIM-V medium. […] Following stimulation, the cells were fixed in BD Phosflow™ Fix Buffer I (BD Biosciences), then permeabilized using BD Phosflow™ Perm Buffer III (BD Biosciences) following manufacture's instruction.

[2] = target: T1, ALK4 (Homo sapiens, UniProt P36896); assay: SMAD2/3 inhibition experiments (ALK4 inhibitors) in Tfh differentiation; type: cell-based; settings: activin A+IL-12, 5 days, vs vehicle (DMSO)
T1 construct: endogenous in cells; host or cells: primary human naive CD4+ T cells from PBMCs
T1 sequence (P36896 24-505): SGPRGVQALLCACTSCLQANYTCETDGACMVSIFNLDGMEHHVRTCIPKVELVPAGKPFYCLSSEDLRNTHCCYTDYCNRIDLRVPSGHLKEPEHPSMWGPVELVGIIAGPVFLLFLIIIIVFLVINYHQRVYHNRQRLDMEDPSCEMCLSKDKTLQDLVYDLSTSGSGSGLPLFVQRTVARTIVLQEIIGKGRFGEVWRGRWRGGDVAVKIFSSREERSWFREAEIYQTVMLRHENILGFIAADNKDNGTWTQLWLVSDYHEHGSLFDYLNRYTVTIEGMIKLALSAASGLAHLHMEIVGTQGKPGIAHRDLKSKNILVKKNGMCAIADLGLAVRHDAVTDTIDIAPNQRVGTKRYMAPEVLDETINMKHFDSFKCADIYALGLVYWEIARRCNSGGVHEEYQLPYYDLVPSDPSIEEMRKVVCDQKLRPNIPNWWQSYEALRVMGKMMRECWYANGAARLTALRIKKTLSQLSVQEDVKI

[3] = tested on: SMAD2/3; assay: Analysis of phosphorylated SMAD2/3 in blood naïve CD4 T cells; type: cell-based, human; settings: activin A + SB 431542 (10 μM)
Text: as §1

[4] = tested on: human naïve CD4 T cells; assay: In vitro Tfh differentiation, PD-1 and CXCR5 expression by FACS; type: cell-based; settings: for synergy with activin A on CXCR5 and PD-1 expression: IL-12 family cytokine added to activin A, serum-free conditions
Description: (§2) For surface staining, primary-staining panels used for phenotypic analysis or for cell sorting known in the art were used. For the intranuclear staining: cells were treated with the FoxP3 Fixation/Permeabilization kit (eBioscience) and stained in Permeabilization buffer (eBioscience). For cytokine staining: day 3 or day 5 in vitro differentiated cells (specified in the main text or in figure legends) cells were stimulated for 5 hours at 37° C. with Phorbol 12-myristate 13-acetate (PMA, 25 ng/ml) and Ionomycin (1 μg/ml) in the presence of Brefeldin A (5 μg/ml). Cells were fixed with PBS 2% FBS, 1% PFA and permeabilized with PBS 2% FBS, 0.5% Saponin (from quillaja bark, Sigma-Aldrich). Samples were analyzed on a LSR Fortessa Cell Analyzer (BD, Bioscience). Flow cytometry data were analyzed with FlowJo (Tree Star). For cell sorting, cells were sorted using sorted using a FACS Aria (BD, Bioscience).
Unless differently specified, naïve CD4^+ T cells were enriched from PBMCs by magnetic bead negative selection with the Naïve CD4^+ T Cell Isolation Kit (Stem Cell Technologies). Purity (CD4^+CD45RA^+) was 90% or higher. Cells (7.5×10^4 cells/well) were activated by Dynabeads Human T-Activator CD3/CD28 (2 μl/well, Life Technologies) and cultured with recombinant human/mouse/rat activin A (50 ng/ml or 100 ng/ml), recombinant human IL-12 (5 ng/ml), recombinant human TGFβ (1 ng/ml), recombinant human IL-23 (10 ng/ml) or recombinant human IL-35 (10 ng/ml) in the presence of and recombinant human IL-7 (4 ng/ml) in AIM-V medium (Life Technologies). All cytokines were from R&D System and Peprotech. The 14 kDa mature human beta A chain of human activin A shares 100% amino acid sequence identity with bovine, feline, mouse, porcine, and rat beta A. Phenotype was quantified after 3 or 5 days, as specified in the main text of Figure legends. Similar results were obtained when using Treg-depleted FACS sorted naïve CD4 T cells, in which cells were sorted from total PBMCs by flow cytometry as CD19^−CD8^−CD14^−CD16^− CD4^+CD45RO^−CD25^− cells. For experiments quantifying supernatant CXCL13 concentration, cells were activated by plate-bound anti-human CD3 (5 μg/ml, BD) and ICOS-L (5 μg/ml, recombinant human B7-H2, R&D). CXCL13 concentrations were determined via human CXCL13 DuoSet ELISA (R&D) on supernatants harvested after 5 days of in vitro culture. For blocking experiments, cells were cultured with anti-activin A blocking mAb (5 μg/ml, clone 69403, R&D), anti-TGFβ mAb (100 μg/ml, clone 1D11.16.8, BioXcell), or equivalent concentration of mouse IgG1 isotype mAb (BioXcell). For blockade of IL-2, cells were cultured with anti-IL-2 blocking mAb (10 μg/ml, clone 5334, R&D) or mouse IgG1 isotype mAb (BioXcell).

[5] = tested on: human naïve CD4 T cells; assay: Intracellular cytokine staining after PMA/Ionomycin restimulation; type: cell-based; settings: cells cultured with IL-12, PMA/Ionomycin re-stimulation
Description: as §2

[6] = tested on: autologous memory B cells; assay: T-B co-culture, B cell help; type: cell-based, human; settings: T-B co-cultures
[7] = tested on: human naïve CD4 T cells; assay: Screening of secretomics recombinant proteins for Tfh marker induction; type: cell-based; settings: secretomics protein screen, anti-CD3/CD28 beads, 5 days, automated FACS
Description: FIG. 1A-D: Inhibin beta A (INHBA) emerged from the screen as potent regulator of human Tfh differentiation. (A) Schematic of primary screen. Purified human naïve CD4 T cells from a leukapheresis donor were stimulated by anti-CD3/CD28 beads on 384 well plates on day 0. The GNF secretomics recombinant proteins were added at the beginning of the stimulation. Each secretomics protein was tested in duplicate. After 5 days of in vitro culture, cells were evaluated by automated FACS analysis for the expression of Tfh signature markers, including CXCR5 and PD-1. (B) Primary screen results. Relative enrichment of PD-1^+CXCR5^+ cell induction is reported as Z score for each recombinant protein. INHBA gene product is shown in red. (C) CXCR5 and PD-1 expression from repeat experiment in which INHBA gene product was tested again for its capacity to induce Tfh-like differentiation. (D) Confocal microscopy of INHBA expression in human tonsils. Tonsil sections were stained with anti-INHBA (red) anti-BCL6 (blue) and anti-CD3 (green) Abs. An overlay from one donor representative of six is shown on the left panel. […]
Naïve CD4^+ T cells were isolated from leukapheresis-derived mononuclear cells via CliniMACS negative selection (Miltenyi Biotec). […] Induction of CXCR5 and PD-1 was assessed after 5 days of in vitro culture using automated FACS acquisition via HTS on LSR Fortessa (BD Biosciences). For each 384 well plate, mean and standard deviation of PD-1^+CXCR5^+ cell frequency induced by each individual recombinant proteins was determined and used to calculate the Z score. Z scores of replicate plates were analyzed independently.
To discover novel regulators of human Tfh cell differentiation, we performed an unbiased high throughput screen of a human extracellular proteome library consisting of over 2000 human proteins predicted or known to be cytokines, chemokines, morphogens, costimulatory receptors, or single pass transmembrane molecules^19. […] Following 5 days, expression of the Tfh signature markers CXCR5 and PD-1 were measured on the cells by flow cytometry, in an automated fashion. […]

suppression of PD-1+CXCR5+ cell generation in response to activin A [2]: potent suppression
Molecule: Cc1cccc(-c2nn3c(c2-c2ccnc4ccc(C(N)=O)cc24)CCC3)n1 [Galunisertib, reference compound]
inhibition of activin A-induced SMAD2/3 phosphorylation [1]: abolished

Molecule: NC(=O)c1ccc(-c2nc(-c3ccc4c(c3)OCO4)c(-c3ccccn3)[nH]2)cc1 [SB 431542, reference compound]
reduction of activin A-mediated SMAD2/3 phosphorylation [3]: strong reduction

B1: IL-12: recombinant human cytokine (protein, UniProt P29459 23-219; P29460 23-328, looked up)
Interleukin-12 subunit alpha: RNLPVATPDPGMFPCLHHSQNLLRAVSNMLQKARQTLEFYPCTSEEIDHEDITKDKTSTVEACLPLELTKNESCLNSRETSFITNGSCLASRKTSFMMALCLSSIYEDLKMYQVEFKTMNAKLLMDPKRQIFLDQNMLAVIDELMQALNFNSETVPQKSSLEEPDFYKTKIKLCILLHAFRIRAVTIDRVMSYLNAS
Interleukin-12 subunit beta: IWELKKDVYVVELDWYPDAPGEMVVLTCDTPEEDGITWTLDQSSEVLGSGKTLTIQVKEFGDAGQYTCHKGGEVLSHSLLLLHKKEDGIWSTDILKDQKEPKNKTFLRCEAKNYSGRFTCWWLTTISTDLTFSVKSSRGSSDPQGVTCGAATLSAERVRGDNKEYEYSVECQEDSACPAAEESLPIEVMVDAVHKLKYENYTSSFFIRDIIKPDPPKNLQLKPLKNSRQVEVSWEYPDTWSTPHSYFSLTFCVQVQGKSKREKKDRVFTDKTSATVICRKNASISVRAQDRYYSSSWSEWASVPCS
synergy with activin A on CXCR5 and PD-1 expression [4]: enhanced | IL-21 production [5]: capable of producing IL-21 | contribution to B cell helper activity of in vitro differentiated Tfh cells [6]: driven entirely by IL-12

B2: IL-23: recombinant human cytokine of the IL-12 cytokine family (protein, UniProt Q9NPF7 20-189; P29460 23-328, looked up)
Interleukin-23 subunit alpha: RAVPGGSSPAWTQCQQLSQKLCTLAWSAHPLVGHMDLREEGDEETTNDVPHIQCGDGCDPQGLRDNSQFCLQRIHQGLIFYEKLLGSDIFTGEPSLLPDSPVGQLHASLLGLSQLLQPEGHHWETQQIPSLSPSQPWQRLLLRFKILRSLQAFVAVAARVFAHGAATLSP
Interleukin-12 subunit beta: B1 Interleukin-12 subunit beta
synergy with TGFβ or activin A, induction of CXCR5+ or CXCR5+PD1+ cells ([4]; FIG. 15, interleukin combined with TGFβ or activin A): synergizes with TGFβ or activin A but less potently than IL-12 | synergy with activin A on CXCR5 and PD-1 expression [4]: modest but detectable synergistic activity with activin A

B3: product of the Inhibin beta A gene (INHBA): secreted recombinant protein from the secretomics collection; forms the cytokine activin A as a homodimer (protein, UniProt P08476 311-426, looked up)
Inhibin beta A chain: GLECDGKVNICCKKQFFVSFKDIGWNDWIIAPSGYHANYCEGECPSHIAGTSGSSLSFHSTVINHYRMRGHSPFANLKSCCVPTKLRPMSMLYYDDGQNIIKKDIQNMIVEECGCS
modifications: Inhibin beta A chain
induction of CXCR5 and PD-1 expression (PD-1+CXCR5+ cells) [7]: most potent inducer of CXCR5 and PD-1
